Reference: article PMC8020760, “Assembly of a dsRNA synthesizing complex: RNA-DEPENDENT RNA POLYMERASE 2 contacts the largest subunit of NUCLEAR RNA POLYMERASE IV” (Proceedings of the National Academy of Sciences of the …, 2021)

T1: recombinant RNA-DEPENDENT RNA POLYMERASE 2 (RDR2), wild type, with N-terminal V5 epitope and 6xHis tags (A. thaliana, UniProt O82504 1-1133)
T1 sequence (looked up): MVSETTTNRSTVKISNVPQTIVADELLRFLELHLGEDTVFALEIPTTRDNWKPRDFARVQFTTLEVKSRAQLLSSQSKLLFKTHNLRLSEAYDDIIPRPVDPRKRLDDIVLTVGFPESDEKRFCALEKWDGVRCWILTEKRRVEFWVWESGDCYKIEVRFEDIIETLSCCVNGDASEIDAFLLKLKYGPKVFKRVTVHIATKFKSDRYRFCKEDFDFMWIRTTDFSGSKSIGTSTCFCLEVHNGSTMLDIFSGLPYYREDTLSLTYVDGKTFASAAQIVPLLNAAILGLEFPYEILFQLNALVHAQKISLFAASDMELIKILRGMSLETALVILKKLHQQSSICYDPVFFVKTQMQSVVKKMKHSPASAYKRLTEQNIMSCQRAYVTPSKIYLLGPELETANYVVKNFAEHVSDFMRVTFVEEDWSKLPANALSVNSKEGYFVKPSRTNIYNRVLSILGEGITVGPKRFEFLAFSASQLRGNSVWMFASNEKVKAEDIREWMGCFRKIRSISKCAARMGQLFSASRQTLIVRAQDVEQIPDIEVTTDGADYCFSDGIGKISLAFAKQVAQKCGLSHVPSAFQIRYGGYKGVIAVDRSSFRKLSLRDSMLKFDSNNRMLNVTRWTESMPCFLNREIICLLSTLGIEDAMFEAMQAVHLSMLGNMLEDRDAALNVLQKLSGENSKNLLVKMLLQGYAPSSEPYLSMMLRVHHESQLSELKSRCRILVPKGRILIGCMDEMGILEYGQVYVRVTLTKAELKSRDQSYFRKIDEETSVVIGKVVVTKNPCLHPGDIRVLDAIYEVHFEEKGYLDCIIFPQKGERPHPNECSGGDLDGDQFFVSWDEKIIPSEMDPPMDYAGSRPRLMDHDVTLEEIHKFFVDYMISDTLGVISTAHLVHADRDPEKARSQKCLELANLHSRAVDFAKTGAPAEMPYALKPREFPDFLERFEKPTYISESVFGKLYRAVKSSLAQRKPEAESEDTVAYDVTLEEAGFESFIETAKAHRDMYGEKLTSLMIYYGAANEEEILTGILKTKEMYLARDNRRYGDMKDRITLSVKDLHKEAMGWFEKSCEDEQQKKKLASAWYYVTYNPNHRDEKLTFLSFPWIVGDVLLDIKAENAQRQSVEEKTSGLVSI

B1: recombinant NRPD1_(1–300) with His and FLAG tags, made in E. coli (domain or fragment, A. thaliana, UniProt Q9LQ02 1-300, looked up)
chain: MEDDCEELQVPVGTLTSIGFSISNNNDRDKMSVLEVEAPNQVTDSRLGLPNPDSVCRTCGSKDRKVCEGHFGVINFAYSIINPYFLKEVAALLNKICPGCKYIRKKQFQITEDQPERCRYCTLNTGYPLMKFRVTTKEVFRRSGIVVEVNEESLMKLKKRGVLTLPPDYWSFLPQDSNIDESCLKPTRRIITHAQVYALLLGIDQRLIKKDIPMFNSLGLTSFPVTPNGYRVTEIVHQFNGARLIFDERTRIYKKLVGFEGNTLELSSRVMECMQYSRLFSETVSSSKDSANPYQKKSDT
notes: NRPD1, A. thaliana, amino acids 1-300 of 1,453; More in SI Appendix, Methods; also called NRPD1_(1–300)-FLAG; FLAG-tagged NRPD1_(1–300); source: E. coli (pET28 vector), purified (nickel-NTA by the methods; by its C-terminal FLAG tag by the results); not shown: FLAG, C-terminal, kept
B2: recombinant RDR2_(771–970) with His and HA tags, made in E. coli (domain or fragment, A. thaliana, UniProt O82504 771-970, looked up)
chain: ETSVVIGKVVVTKNPCLHPGDIRVLDAIYEVHFEEKGYLDCIIFPQKGERPHPNECSGGDLDGDQFFVSWDEKIIPSEMDPPMDYAGSRPRLMDHDVTLEEIHKFFVDYMISDTLGVISTAHLVHADRDPEKARSQKCLELANLHSRAVDFAKTGAPAEMPYALKPREFPDFLERFEKPTYISESVFGKLYRAVKSSLAQ
notes: The methods give the C-terminal limit as 971, the results and legends as 970; More in SI Appendix, Methods; source: E. coli (pET28 vector), purified (nickel-NTA by the methods; anti-HA resin by the results)
B3: RDR2 peptide 10 of the RDR2_(771–970) peptide array (peptide, UniProt O82504 861-875, looked up)
peptide: RLMDHDVTLEEIHKF
notes: RDR2, A. thaliana; 15-mer of the array; limits worked out from the design; holds K874; Peptides were 'typically' 15 amino acids long; source: synthetic peptide (Genscript)
B4: RDR2 peptide 11 of the RDR2_(771–970) peptide array (peptide, UniProt O82504 871-885, looked up)
peptide: EIHKFFVDYMISDTL
notes: as for B3
B5: RDR2 peptide 12 of the RDR2_(771–970) peptide array (peptide, UniProt O82504 881-895, looked up)
peptide: ISDTLGVISTAHLVH
notes: RDR2, A. thaliana; 15-mer of the array; limits worked out from the design; Peptides were 'typically' 15 amino acids long; source: synthetic peptide (Genscript)
B6: NRPD1 peptide 9 of the NRPD1_(1–300) peptide array (peptide, UniProt Q9LQ02 81-95, looked up)
peptide: INPYFLKEVAALLNK
notes: NRPD1, A. thaliana; 15-mer of the array of 30 peptides over 1-300 that overlap by 5; limits worked out from the design; Peptides were 'typically' 15 amino acids long; source: synthetic peptide (Genscript)
B7: NRPD1 peptide 10 of the NRPD1_(1–300) peptide array (peptide, UniProt Q9LQ02 91-105, looked up)
peptide: ALLNKICPGCKYIRK
notes: NRPD1, A. thaliana; 15-mer of the array; limits worked out from the design; holds a CxxC motif; Peptides were 'typically' 15 amino acids long; source: synthetic peptide (Genscript)
B8: NRPD1 peptide 12 of the NRPD1_(1–300) peptide array (peptide, UniProt Q9LQ02 111-125, looked up)
peptide: TEDQPERCRYCTLNT
notes: as for B7
B9: NRPD1 peptide 13 of the NRPD1_(1–300) peptide array (peptide, UniProt Q9LQ02 121-135, looked up)
peptide: CTLNTGYPLMKFRVT
notes: NRPD1, A. thaliana; 15-mer of the array; limits worked out from the design; holds K131; Peptides were 'typically' 15 amino acids long; source: synthetic peptide (Genscript)
B10: NRPD1 peptide 24 of the NRPD1_(1–300) peptide array (peptide, UniProt Q9LQ02 231-245, looked up)
peptide: RVTEIVHQFNGARLI
notes: NRPD1, A. thaliana; 15-mer of the array; limits worked out from the design; Peptides were 'typically' 15 amino acids long; source: synthetic peptide (Genscript)
B11: NRPD1 peptide 25 of the NRPD1_(1–300) peptide array (peptide, UniProt Q9LQ02 241-255, looked up)
peptide: GARLIFDERTRIYKK
notes: NRPD1, A. thaliana; 15-mer of the array; limits worked out from the design; holds K254 and K255; Peptides were 'typically' 15 amino acids long; source: synthetic peptide (Genscript)
B12: NRPD1 peptide 26 of the NRPD1_(1–300) peptide array (peptide, UniProt Q9LQ02 251-265, looked up)
peptide: RIYKKLVGFEGNTLE
notes: as for B11

These binders were tested against T1, recombinant RNA-DEPENDENT RNA … (assay: co-IP; purified recombinant proteins, 0.25 µM each, 30 min, room temperature, 50 mM Hepes-KOH pH 7.5, 150 mM NaCl; IP with resin against the tag of one or the other partner (anti-FLAG, anti-V5 or anti-HA); immunoblot). Conditions: both partners purified.
B1: binds.

The binders below were run against B1 in the same assay as above. Conditions: both partners purified.
B2: binds.

These binders were tested against B1 (assay: peptide or protein array; synthetic peptides (10 ng) dot-blotted onto nitrocellulose, probed with about 200 ng NRPD1_(1–300)-FLAG or RDR2_(771–970)-HA in 8 mL 50 mM Hepes-KOH pH 7.5, 100 mM NaCl, room temperature, 1 h; anti-FLAG-HRP or anti-HA-HRP, chemiluminescence). Conditions: both partners purified.
B3: binds. B4: binds. B5: binds.

What follows are binders tested against B2 in the same assay as above. Conditions: both partners purified.
B6: binds. B7: binds. B8: binds. B9: binds. B10: binds. B11: binds. B12: binds.
